{"source": "the supplement of paper PMC9732359", "note": "± gives the uncertainty stated by the source.", "data": [{"test": "protein stability index of a GFP-peptide fusion (yeast GPS) (PSI 1-4); higher = more stable; sorted into four equal gates, so the index is relative within each strain", "conditions": "pdr5∆", "method_in_brief": "(§1)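 The protein stability index of a peptide was calculated by multiplying its read frequency in each gate by that gate's number and adding the products. The peptides were tiled 17-residue stretches of yeast proteins, fused downstream of GFP on a Cherry-expressing plasmid and carried in yeast as a pooled library. Mid-log cultures in leucine-free medium were sorted into four equal gates by GFP/Cherry ratio, and each gate's plasmids were PCR-amplified and Illumina-sequenced.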", "values": [{"sequence": "ENVILGQMAPIGTGAFD [RPO21]", "protein stability index": "2.37 ± 0.13"}, {"sequence": "ENYEGKQDKTLQKVENQ [YIL149C/MLP2]", "protein stability index": "3.29 ± 0.14"}, {"sequence": "EPQGAVTHMDQIFVRGS [SMD3]", "protein stability index": "2.77 ± 0.07"}]}, {"test": "protein stability index of a GFP-peptide fusion (yeast GPS) (PSI 1-4); higher = more stable; sorted into four equal gates, so the index is relative within each strain", "conditions": "san1∆", "method_in_brief": "as §1", "values": [{"sequence": "EALVQAFAFCIPVYCFS [YCG1]", "protein stability index": "1.73 ± 0.16"}, {"sequence": "EAVKQAAKIIYLAHEDN [PRE10]", "protein stability index": "3.3 ± 0.22"}, {"sequence": "EAVVDQDVQRTCILHGP [FAS1]", "protein stability index": "3.17 ± 0.078"}, {"sequence": "ECFISMQSTSPAVKQWD [SWI1]", "protein stability index": "2.4 ± 0.086"}, {"sequence": "ECQVIAAEGLCKLFLAD [YCG1]", "protein stability index": "3.11 ± 0.047"}, {"sequence": "EDEEKILDNTENYDDTE [DSN1]", "protein stability index": "3.4 ± 0.058"}, {"sequence": "EDEMMHEEDQKTNIIEK [RPN12]", "protein stability index": "2.58 ± 0.15"}, {"sequence": "EDETLRRIKEAEENLKK [YIL149C/MLP2]", "protein stability index": "3.26 ± 0.076"}, {"sequence": "EDFEHNNLSSMNLDFDI [MCD1]", "protein stability index": "3.24 ± 0.04"}, {"sequence": "EDGTSASFQIVEEDHTL [RPC19]", "protein stability index": "3.4 ± 0.12"}, {"sequence": "EDHDVHSNESSNETIGE [IRR1]", "protein stability index": "3.28 ± 0.058"}, {"sequence": "EDIIKRTSPIDNVSNTH [NUT2]", "protein stability index": "3.01 ± 0.083"}, {"sequence": "EDITEPKPDKPSGRTRG [ESC2]", "protein stability index": "3.07 ± 0.11"}, {"sequence": "EDMETQASDPSKKKKNI [RPC53]", "protein stability index": "3.24 ± 0.16"}, {"sequence": "EDPNSAAFDEVEYKLTF [DIS3]", "protein stability index": "1.17 ± 0.25"}, {"sequence": "EDPVTVEYLTRYVAGVQ [PRE6]", "protein stability index": "2.54 ± 0.051"}, {"sequence": "EDRNKIHQYLFQEGVVV [RPS10A]", "protein stability index": "1.66 ± 0.12"}, {"sequence": "EDRNQRIKEMYWKLWID [FAS1]", "protein stability index": "3.16 ± 0.11"}, {"sequence": "EEAGSPLVYRHELITNI [RPB9]", "protein stability index": "3.28 ± 0.049"}, {"sequence": "EEDFYTVVGNASFGKNL [DSN1]", "protein stability index": "2.9 ± 0.23"}, {"sequence": "EEEIKKFDSRIRGILMA [PRP8]", "protein stability index": "2.69 ± 0.052"}, {"sequence": "EEEMAPYYKYLCEEYLV [RPN7]", "protein stability index": "2.5 ± 0.14"}, {"sequence": "EEGRAIPGEYITYALSG [RPS21B]", "protein stability index": "2.88 ± 0.078"}, {"sequence": "EEKEEENGDEDEDEDED [QCR6]", "protein stability index": "3.27 ± 0.084"}, {"sequence": "EELKDSEINEILARNDE [SNF2]", "protein stability index": "2.66 ± 0.13"}, {"sequence": "EENNYQYGYSGSSAGMN [SNF6]", "protein stability index": "1.94 ± 0.12"}, {"sequence": "EENWDDVEVDDDFTNEL [SEM1]", "protein stability index": "3.05 ± 0.2"}, {"sequence": "EEPAKEEAPAPTPAASA [FAS2]", "protein stability index": "2.69 ± 0.26"}, {"sequence": "EEQLDALECRLASAIAS [CSN12]", "protein stability index": "2.38 ± 0.12"}, {"sequence": "EEQLDLLSAILDPSKSK [MED11]", "protein stability index": "3.32 ± 0.11"}, {"sequence": "EETSHLLTVTPGPRLLY [RPN10]", "protein stability index": "2.54 ± 0.091"}, {"sequence": "EETYEEKPQFKDGETTD [RPO26]", "protein stability index": "3.47 ± 0.19"}, {"sequence": "EEYRKQLDKKNELQKFQ [SMC1]", "protein stability index": "2.82 ± 0.079"}, {"sequence": "EEYVINLLKVSVDICNN [ECM29]", "protein stability index": "2.7 ± 0.048"}, {"sequence": "EFFNPEIFHLLQPLEEG [SIN4]", "protein stability index": "1.59 ± 0.086"}, {"sequence": "EFIAAVNNPQEETSHLL [RPN10]", "protein stability index": "3 ± 0.14"}, {"sequence": "EGDIQVLKSYGAAPYAA [RPT1]", "protein stability index": "3.05 ± 0.082"}, {"sequence": "EGIKVVDIDDPDMMVDS [SNF2]", "protein stability index": "3.12 ± 0.094"}, {"sequence": "EGKKVMAPYLPGSRASS [RPN2]", "protein stability index": "2.4 ± 0.072"}, {"sequence": "EGLDLLKLCVQELEKRM [PRE1]", "protein stability index": "2.19 ± 0.16"}, {"sequence": "EGLIIDTDKLPIKNRTS [SIN4]", "protein stability index": "2.76 ± 0.074"}, {"sequence": "EGNAGGDQKTSENRNNI [YOR098C/NUP1]", "protein stability index": "3.19 ± 0.17"}, {"sequence": "EGNQGSLQEDVSFDFNG [MED8]", "protein stability index": "3.23 ± 0.062"}, {"sequence": "EHASLLVRDSKPSKPFN [MED8]", "protein stability index": "2.56 ± 0.05"}, {"sequence": "EHGMNAPSVPEFIYLTK [SNF2]", "protein stability index": "2.91 ± 0.069"}, {"sequence": "EHHSSVKYASPNLNMKY [FAS2]", "protein stability index": "2.94 ± 0.054"}, {"sequence": "EHKTPELISFKERTKSL [YIL149C/MLP2]", "protein stability index": "2.93 ± 0.076"}, {"sequence": "EHNPSAHTASVGVVFGS [COR1]", "protein stability index": "2.88 ± 0.14"}, {"sequence": "EIARQMRDKSFGRTLAS [RPL12A]", "protein stability index": "2.88 ± 0.13"}, {"sequence": "EIELKKLPKVYKRSIVR [SWI1]", "protein stability index": "2.68 ± 0.099"}, {"sequence": "EIENATKDIFPLQNIHV [RPS1A]", "protein stability index": "1.11 ± 0.29"}, {"sequence": "EIEQLDQYIQKQVQISH [YGL172W/NUP49]", "protein stability index": "2.75 ± 0.073"}, {"sequence": "EIEVDEMEVDAEGEEVE [RPN1]", "protein stability index": "3.52 ± 0.082"}, {"sequence": "EINNLIQLPASLAATYS [ARP9]", "protein stability index": "1.96 ± 0.07"}, {"sequence": "EIQRTMLELLNQLDGFD [RPT2]", "protein stability index": "2.93 ± 0.067"}, {"sequence": "EKADYERELISNIEQTE [YIL149C/MLP2]", "protein stability index": "3.27 ± 0.063"}, {"sequence": "EKFSSFIESIVVDFKNK [SNF12]", "protein stability index": "2.74 ± 0.081"}, {"sequence": "EKKQKTESQDVETRVQN [DPB4]", "protein stability index": "3.35 ± 0.048"}, {"sequence": "EKLINNSDDCMMEEIIN [ECM29]", "protein stability index": "3.1 ± 0.066"}, {"sequence": "EKLLRHVDSLIEDFVDG [SRB7]", "protein stability index": "3.22 ± 0.061"}, {"sequence": "EKLVSDLRLIKVPQQAA [SMC1]", "protein stability index": "2.16 ± 0.24"}, {"sequence": "EKPLILADYIVEVLLVN [NUT1]", "protein stability index": "1.65 ± 0.17"}, {"sequence": "EKTINDLQRTQTLSEKE [YIL149C/MLP2]", "protein stability index": "2.94 ± 0.044"}, {"sequence": "EKYAAAAPAATSAASGD [RPP0]", "protein stability index": "1.88 ± 0.13"}, {"sequence": "ELALIEEAYDNPHDTLN [PRP8]", "protein stability index": "3.51 ± 0.076"}, {"sequence": "ELALLNHWRQNKGRAVY [BRR2]", "protein stability index": "1.21 ± 0.29"}, {"sequence": "ELDILNKGWKLQSLNES [SRB4]", "protein stability index": "3 ± 0.18"}, {"sequence": "ELDTASRILKAQSRNVE [YGR119C/NUP57]", "protein stability index": "2.03 ± 0.077"}, {"sequence": "ELENFLDNFETKTEALL [YJL041W/NSP1]", "protein stability index": "2.72 ± 0.15"}, {"sequence": "ELGEIIDEDIGNNVQEN [RMP1]", "protein stability index": "3.02 ± 0.26"}, {"sequence": "ELGEQKCQELVTNIRRI [RRP46]", "protein stability index": "1.55 ± 0.15"}, {"sequence": "ELHKEGTISKLENKENG [SMC2]", "protein stability index": "1.4 ± 0.076"}, {"sequence": "ELIQKYLGDGPRLCRQI [RPT2]", "protein stability index": "2.76 ± 0.2"}, {"sequence": "ELKDICSFAVTKSSLND [YML103C/NUP188]", "protein stability index": "2.89 ± 0.072"}, {"sequence": "ELLKSSLQKAGSKMEAK [AAR2]", "protein stability index": "3.05 ± 0.079"}, {"sequence": "ELMAMNITPRLYTDRSR [RPB2]", "protein stability index": "1.23 ± 0.13"}, {"sequence": "ELMDRTGLKLYSRITLI [RPP1]", "protein stability index": "1.69 ± 0.1"}, {"sequence": "ELPKFILSDSPLELSAP [DIS3]", "protein stability index": "2.85 ± 0.19"}, {"sequence": "ELSDKEIYTVEDRPPEY [ISW2]", "protein stability index": "3.33 ± 0.17"}, {"sequence": "ELSEEKYIVKASSGPRY [RPT4]", "protein stability index": "3.21 ± 0.098"}, {"sequence": "ELTDEYLAENPDPNFEN [PRP8]", "protein stability index": "3.36 ± 0.077"}, {"sequence": "ELTLAEQQVKEAEMAYV [SMC4]", "protein stability index": "2.81 ± 0.078"}, {"sequence": "ELWRKEQKLQTVLETLL [SMC3]", "protein stability index": "2.7 ± 0.17"}, {"sequence": "EMIDSHIKEASEEVDDL [SNF2]", "protein stability index": "2.81 ± 0.094"}, {"sequence": "EMVKDRGYFITQEEVEL [RPB5]", "protein stability index": "1.74 ± 0.066"}, {"sequence": "ENALIELKNELAKTKEN [YIL149C/MLP2]", "protein stability index": "2.98 ± 0.068"}, {"sequence": "ENESTNYQYKIQELRKL [MED7]", "protein stability index": "2.36 ± 0.074"}, {"sequence": "ENGTLLVPPPRTIANQD [RPR2]", "protein stability index": "2.81 ± 0.05"}, {"sequence": "ENIEPLDPINLPLDSQD [PRP8]", "protein stability index": "2.49 ± 0.11"}, {"sequence": "ENLNRNWRGREHWKVRN [BRN1]", "protein stability index": "3.37 ± 0.063"}, {"sequence": "ENPAFLPGTNNNSNSNN [SEC65]", "protein stability index": "2.69 ± 0.15"}, {"sequence": "ENPNFWRQFGNRMQISP [GRR1]", "protein stability index": "2.93 ± 0.11"}, {"sequence": "ENQPFHGIKDIPIGHVH [AAR2]", "protein stability index": "2.89 ± 0.084"}, {"sequence": "ENSYLRGLTPQEFFFHA [RPO21]", "protein stability index": "2.45 ± 0.062"}, {"sequence": "ENVGTRLLPINVNKKAL [MED11]", "protein stability index": "2.89 ± 0.094"}, {"sequence": "ENVILGQMAPIGTGAFD [RPO21]", "protein stability index": "2.36 ± 0.12"}]}]}
